Patent EP4707393A1, “DOUBLE-STRANDED SIRNA, CONJUGATE THEREOF AND USE THEREOF” (CMS Research & Development Pte. Ltd., priority 2023, dated 2024)

Assays:
hPBMCs = assay: Immunogenicity test in hPBMCs (IL-6 and TNF-α ELISA of supernatant); assay type: cell-based, human; settings: donor 2 hPBMCs, 18-20 h
Outline: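 siRNA conjugates, three-fold serially diluted in water then 10-fold in 1640 medium (5.0% water final), were added in duplicate to PBMCs at 1.6 × 10^6/mL and incubated 18-20 h at 37 °C. TNF-α and IL-6 in supernatant were measured by ELISA; LPS served as positive control.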

[1] = tested on: human LPA gene (Genbank number: NM_005577.4); assay: Inhibitory activity against LPA mRNA, psiCHECK-2 dual-luciferase reporter vector in Huh7 cells; assay type: cell-based; settings: Huh7 cells transfected with LPA_psiCHECK-2 plasmid, RNAiMAX transfection
Outline: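 Huh7 cells transfected with psiCHECK-2 carrying human LPA, then treated next day with compounds (3 concentrations) delivered by RNAiMAX. Dual-Glo readout of firefly and Renilla luciferase per well. Percent inhibition calculated from the reporter ratio relative to the RNAiMAX control.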

LPA mRNA = assay: In vivo efficacy in LPA-HDI mouse model (liver LPA mRNA); parameters: species or system BALB/c mouse; settings: 3 mg/kg single subcutaneous injection, Day 14, relative to PBS blank group, 4 mice per group
Procedure: The knockdown effect of the test double-stranded siRNA conjugate on the target gene LPA upon entry into the mouse is evaluated by rapid high-pressure injection of the physiological saline containing recombinant plasmid pcDNA-LPA carrying the target gene via the tail vein.
pcDNA-LPA plasmid, BALB/c mouse, PBS (phosphate buffer), and conjugates of the present invention.
Six-week-old female BALB/c mice were ordered and acclimated/quarantined for three days upon arrival in the animal room.
On Day 0, the mice were randomly grouped based on body weight data. After grouping, all mice were given a single administration via subcutaneous injection, with a dose volume of 10 mL/kg. Mice in Group 1 received PBS; mice in the other groups received the conjugates (dissolved in PBS).
On Day 13 post-administration, all mice were injected with normal saline containing the pcDNA-LPA plasmid via the tail vein within 5 seconds. The injection volume (mL) = mouse body weight (g) × 8%. The amount of plasmid injected per mouse was 10 µg.
On Day 14 post-administration, all groups of mice were euthanized by CO2 inhalation, and 2 liver samples were collected from each mouse. Liver samples were treated overnight with RNAlater at 4 °C, then RNAlater was removed, and stored at -80 °C for detection of LPA gene expression levels.

[2] = Melting temperature (Tm) by UV absorption at 260 nm; assay type: physicochemical; settings: phosphate buffer solution; average of at least two independent measurements
Procedure: The Tm value was determined by recording the change in UV absorption at 260 nm of DNA/RNA in phosphate buffer solution as the temperature increased.
Table 6 Melting temperature (Tm) test instrument parameters
The melting temperature (Tm) was calculated from the first derivative of the smoothed heating curve, and the reported value was the average of at least two independent measurements. Table 7 Melting temperatures (Tm) of conjugates of the present disclosure

| Substance | IL-6 (hPBMCs; 5 µg/mL) [pg/mL] | TNF alpha (hPBMCs; 5 µg/mL) [pg/mL] | IL-6 (hPBMCs; 15 µg/mL) [pg/mL] | TNF alpha (hPBMCs; 15 µg/mL) [pg/mL] | IL-6 (hPBMCs; 45 µg/mL) [pg/mL] | TNF alpha (hPBMCs; 45 µg/mL) [pg/mL] | EC50 [1] [nM] | % Downregulation of LPA mRNA (LPA mRNA) [%] | Melting temperature Tm [2] [°C] |
| --- | --- | --- | --- | --- | --- | --- | --- | --- | --- |
| Z47: siRNA conjugate: sense SEQ ID NO:51, ligand D01 at 3' end of sense strand, antisense SEQ ID NO:83 (sense CCTGCCAAGCTTGGTCATCTA; antisense NAGATGNCCAAGCTTGGCNGGTT; ligand D01 at sense 3' end; listed as RNA; modified_base 1..2: mod_base = OTHER; note = 2'-O-methylcytidine; modified_base 3: mod_base = OTHER; note = 2'-O-methyluridine; modified_base 4: mod_base = OTHER; note = 2'-O-methylguanosine; modified_base 5..6: mod_base = OTHER; note = 2'-O-m; modified_base 1: mod_base = OTHER; note = n is B33; modified_base 2: mod_base = OTHER; note = 2'-deoxyadenosine; note = 2'-O-methyladenosine) | 49.9 | 15.6 | 0.0 | 3.4 | 16.7 | 9.5 | 0.2 | 64.0 | – |
| Z48: siRNA conjugate: sense SEQ ID NO:51, ligand D01 at 3' end of sense strand, antisense SEQ ID NO:84 (sense CCTGCCAAGCTTGGTCATCTA; antisense NAGATGNCCAAGCTTGGCNGGTT; ligand D01 at sense 3' end; listed as RNA; modified_base 1..2: mod_base = OTHER; note = 2'-O-methylcytidine; modified_base 3: mod_base = OTHER; note = 2'-O-methyluridine; modified_base 4: mod_base = OTHER; note = 2'-O-methylguanosine; modified_base 5..6: mod_base = OTHER; note = 2'-O-m; modified_base 1: mod_base = OTHER; note = n is B34; modified_base 2: mod_base = OTHER; note = 2'-deoxyadenosine; note = 2'-O-methyladenosine) | 32.0 | 15.3 | 49.5 | 20.4 | 1.1 | 5.9 | 0.09 | 64.0 | – |
| Z54: siRNA conjugate: sense SEQ ID NO:49, ligand D01 at 3' end of sense strand, antisense SEQ ID NO:90 (sense CAGCCCCTTATTGTTATACGA; antisense NCGTATNACAATAAGGGGCNGTT; ligand D01 at sense 3' end; listed as RNA; modified_base 1: mod_base = OTHER; note = 2'-O-methylcytidine; modified_base 2: mod_base = OTHER; note = 2'-O-methyladenosine; modified_base 3: mod_base = OTHER; note = 2'-O-methylguanosine; modified_base 4..7: mod_base = OTHER; note = 2'-O-me; note = n is B33; note = 2'-fluorocytidine; modified_base 4: mod_base = OTHER; note = 2'-O-methyluridine;) | – | – | – | – | – | – | – | – | 69.00 |
| Z56: siRNA conjugate: sense SEQ ID NO:43, ligand D01 at 3' end of sense strand, antisense SEQ ID NO:92 (sense CAGCCCCTTATTGTTANACGA; antisense TCTCGTATAACAATAAGGGGCTG; ligand D01 at sense 3' end; listed as RNA; modified_base 1: mod_base = OTHER; note = 2'-O-methylcytidine; modified_base 2: mod_base = OTHER; note = 2'-O-methyladenosine; modified_base 3: mod_base = OTHER; note = 2'-O-methylguanosine; modified_base 4..7: mod_base = OTHER; note = 2'-O-me; note = 2'-O-methyluridine; modified_base 4: mod_base = OTHER; note = 2'-fluorocytidine; modified_base 5: mod_base = OTHER; note = 2'-O-methylg) | – | – | – | – | – | – | – | – | 77.25 |
